Test results: patent US11466255B2, “Methods and compositions for converting non-endocrine pancreatic tissue into insulin-producing cells” (UNIVERSITY OF MIAMI, priority 2015, dated 2022)

Tested on: nude rat (RNU) grafts
Test: Local BMP-7 delivery to hNEPT or PR2Y1+/ALK3+ cells under kidney capsule of nude rats
Format: in vivo
Conditions: POD +21
Excerpt: The nude rat (RNU, Crl:NIH-Foxn1^rnu) is chosen over mice due to the specific BMP-7 local delivery system designed for this purpose, requiring surgical procedures for which a larger animal size would be beneficial. […] The kidney sub-capsular space of rodents is a well-established ectopic site for pancreatic cell (and particularly islet) transplantation^54,55. There are reports of success in the continuous delivery of compounds to pancreatic cells previously implanted under the kidney capsule of rats^38 using Alzet® osmotic pumps that release solution at a rate of 0.5 μl/h for 2 weeks.
While exocrine and endocrine cells coexist in the pancreas, cultured hNEPT lack native ECM for proper compartmentalization, and acinar secretions may be harmful for endocrine cells^37. Acinar cells present in hNEPT after BMP-7 treatment persist in grafts^17. This observation was hypothesized to be one reason behind the sub-optimal performance of BMP-7-treated hNEPT in vivo (see Example 2). […] The first phase of these studies transplants unfractionated hNEPT (0.5-1×10^7 cells) previously grown for 48h in attachment (prior to BMP-7 treatment) under the kidney capsule of nude rats. […] Rats are euthanized at POD +21 and their grafts analyzed by IF for C-peptide as well as the 15 pancreatic marker panel of Example 8. […]

B1: BMP-7: 35 kDa homodimeric protein of the TGF-β superfamily; FDA-approved agent; human mature chain SEQ ID NO:1/2 (protein, listed as Homo sapiens)
chain: IRSTGSKQRSQNRSKTPKNQEALRMANVAENSSSDQRQACKKHELYVSFRDLGWQDWIIAPEGYAAYYCEGECAFPLNSYMNATNHAIVQTLVHFINPETVPKPCCAPTQLNAISVLYFDDSSNVILKKYRNMVVRACGCH
modifications: homodimer; human mature chain of BMP-7 (NCBI Reference Sequence NM_001719.2) comprising peptide from 293-431
With B1 the “islet-like structures within the graft” value (PR2Y1+/ALK3+ cell graft, BMP-7 by iPRECIO pump) was “abundant islet-like structures within the graft” and the “in vivo β-like cell formation compared to controls” value (unfractionated hNEPT graft, BMP-7 by pump for 14 d) was “Substantial in vivo β-like cell formation”.
